# Values of other authors, collected in article PMC2715106.
# Assays:
# [1] = target: core RNA polymerase (Escherichia coli) (UniProt P0A7Z4); test: SEC
# [2] = target: core RNA polymerase (Escherichia coli) (UniProt P0A7Z4); test: in vitro transcription
# Sequence of sigma32 (P0AGB3 whole entry): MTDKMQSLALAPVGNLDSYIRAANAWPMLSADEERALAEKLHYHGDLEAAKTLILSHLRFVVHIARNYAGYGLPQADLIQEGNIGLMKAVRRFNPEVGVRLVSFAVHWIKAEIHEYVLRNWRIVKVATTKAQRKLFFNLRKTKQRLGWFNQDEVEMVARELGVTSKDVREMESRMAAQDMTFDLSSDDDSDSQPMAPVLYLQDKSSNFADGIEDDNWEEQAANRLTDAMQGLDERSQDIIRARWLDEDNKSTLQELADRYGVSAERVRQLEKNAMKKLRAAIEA
substance,measurement,setting,value
sigma32 (from UniProt P0AGB3),Kd,[1],1.24 nM
same,Kd,[2],1 nM
